Reference: the RNAGym collection of RNA variant scans (doi:10.7554/elife.80360)

B1: Hairpin Ribozyme (parent)
chain: GUCCUCUUUCACGUGCGCGUGAAAGAGAGAAGUGAACCAGAGAAACACACGUUGUGGUAUAUUACCUGGUA

Variants of: B1
Experiment: self-cleavage, relative activity (ratio to wild type); higher = more cleavage; co-transcriptional

Row | Variant | self-cleavage
1 | U7C G69C | 0.17
2 | U7C U8A | 0.615
3 | U7C U8C | 0.52
4 | U7C U9A | 0.607
5 | U7C U14A | 0.808
6 | U7C U20A | 0.82
7 | U7C U20C | 1.14
8 | U7C U33C | 0.157
9 | U7C U33G | 0.129
10 | U7C U52C | 0.528
11 | U7C U52G | 0.653
12 | U7C U53C | 0.677
13 | U7C U55A | 0.167
14 | U7C U55C | 0.418
15 | U7C U55G | 0.344
16 | U7C U58A | 0.565
17 | U7C U60C | 0.905
18 | U7C U62C | 0.196
19 | U7C U63C | 0.256
20 | U7C U67A | 0.167
21 | U7C U67C | 0.215
22 | U7C U70G | 0.877
23 | U7G A11C | 0.481
24 | U7G A11G | 0.734

Row | Variant | self-cleavage
25 | U7G A11U | 0.58
26 | U7G A22U | 0.59
27 | U7G A23C | 0.624
28 | U7G A23G | 0.752
29 | U7G A24C | 0.677
30 | U7G A24U | 0.685
31 | U7G A26G | 0.821
32 | U7G A30C | 0.0485
33 | U7G A35G | 0.916
34 | U7G A35U | 0.921
35 | U7G A36G | 0.828
36 | U7G A36U | 0.507
37 | U7G A39C | 0.48
38 | U7G A43G | 0.023
39 | U7G A43U | 0.123
40 | U7G A44C | 0.195
41 | U7G A49G | 0.421
42 | U7G A59G | 0.0757
43 | U7G A59U | 0.116
44 | U7G A61C | 0.261
45 | U7G C18A | 1.01
46 | U7G C37A | 0.335
47 | U7G C38U | 0.377
48 | U7G C46G | 0.134

Row | Variant | self-cleavage
49 | U7G C48A | 0.142
50 | U7G C50A | 0.167
51 | U7G C50U | 0.371
52 | U7G C66G | 0.0969
53 | U7G G13U | 0.632
54 | U7G G15C | 0.836
55 | U7G G19C | 0.592
56 | U7G G21A | 0.499
57 | U7G G21U | 0.453
58 | U7G G27A | 0.369
59 | U7G G32C | 0.161
60 | U7G G40U | 0.214
61 | U7G G42A | 0.218
62 | U7G G51C | 0.908
63 | U7G G54C | 0.41
64 | U7G G56A | 0.151
65 | U7G G56C | 0.0943
66 | U7G G57A | 0.149
67 | U7G G68A | 0.3
68 | U7G G68C | 0.224
69 | U7G U8A | 0.942
70 | U7G U8C | 0.656
71 | U7G U20G | 0.453
72 | U7G U33G | 0.194

Row | Variant | self-cleavage
73 | U7G U53A | 0.967
74 | U7G U53G | 0.641
75 | U7G U55A | 0.225
76 | U7G U55C | 0.152
77 | U7G U58C | 0.813
78 | U7G U60A | 0.795
79 | U7G U62G | 0.223
80 | U7G U67G | 0.283
81 | U7G U70A | 0.673
82 | U8A A22C | 0.594
83 | U8A A23U | 0.911
84 | U8A A24C | 0.626
85 | U8A A24U | 0.571
86 | U8A A26G | 0.606
87 | U8A A28C | 0.385
88 | U8A A28U | 0.613
89 | U8A A30U | 0.0488
90 | U8A A31C | 0.0591
91 | U8A A35G | 0.483
92 | U8A A35U | 0.459
93 | U8A A36C | 0.412
94 | U8A A39C | 0.396
95 | U8A A43C | 0.153
96 | U8A A44U | 0.0969

Row | Variant | self-cleavage
97 | U8A A45C | 0.158
98 | U8A A45G | 0.193
99 | U8A A45U | 0.198
100 | U8A A59C | 0.165
101 | U8A A61G | 0.0847
102 | U8A A71U | 0.631
103 | U8A C10A | 0.458
104 | U8A C12U | 0.747
105 | U8A C16U | 0.788
106 | U8A C18G | 0.524
107 | U8A C18U | 0.779
108 | U8A C37A | 0.288
109 | U8A C37G | 0.241
110 | U8A C37U | 0.56
111 | U8A C38U | 0.357
112 | U8A C46G | 0.0541
113 | U8A C50A | 0.158
114 | U8A C50U | 0.311
115 | U8A C65A | 0.63
116 | U8A C65G | 0.104
117 | U8A C65U | 0.258
118 | U8A G13A | 0.637
119 | U8A G13C | 0.687
120 | U8A G13U | 0.551

Row | Variant | self-cleavage
121 | U8A G15C | 0.954
122 | U8A G17C | 0.63
123 | U8A G19A | 0.558
124 | U8A G19C | 0.553
125 | U8A G21C | 0.504
126 | U8A G25A | 0.432
127 | U8A G25U | 0.114
128 | U8A G27A | 0.236
129 | U8A G32A | 0.141
130 | U8A G32U | 0.166
131 | U8A G34A | 0.98
132 | U8A G40C | 0.156
133 | U8A G42A | 0.129
134 | U8A G51C | 0.602
135 | U8A G54C | 0.284
136 | U8A G56C | 0.196
137 | U8A G56U | 0.134
138 | U8A G68U | 0.172
139 | U8A G69A | 0.375
140 | U8A G69C | 0.191
141 | U8A G69U | 0.213
142 | U8A U9C | 0.377
143 | U8A U14C | 0.845
144 | U8A U20A | 0.479

Row | Variant | self-cleavage
145 | U8A U20C | 0.928
146 | U8A U60A | 0.755
147 | U8A U60G | 0.439
148 | U8A U62C | 0.183
149 | U8A U63A | 0.111
150 | U8A U67G | 0.237
151 | U8A U70A | 0.665
152 | U8C A11U | 0.252
153 | U8C A23C | 0.68
154 | U8C A23U | 0.841
155 | U8C A30G | 0.144
156 | U8C A30U | 0.0797
157 | U8C A41U | 1.12
158 | U8C A43C | 0.126
159 | U8C A44C | 0.131
160 | U8C A44G | 0.0935
161 | U8C A44U | 0.142
162 | U8C A45G | 0.149
163 | U8C A47U | 0.224
164 | U8C A49G | 0.347
165 | U8C A49U | 0.244
166 | U8C A59C | 0.183
167 | U8C A59G | 0.203
